What was measured:
Assay in all cases: purified protein, by the assay type
[1] = substrate: Nc1nc2c(ncn2[C@@H]2O[C@H](COP(=O)(O)OP(=O)(O)O[C@H]3O[C@H](CO)[C@@H](O)[C@H](O)[C@H]3O)[C@@H](O)[C@H]2O)c(=O)[nH]1; details: other: substrate of NPPase from rice leaves; pH 7.0; 37.0 °C
[2] = substrate: Nc1ncnc2c1ncn2[C@@H]1O[C@H](COP(=O)(O)OS(=O)(=O)O)[C@@H](O)[C@H]1O; details: other: substrate of NPPase from rice leaves; pH 7.0; 37.0 °C
[3] = substrate: Cc1cn([C@H]2C[C@H](O)[C@@H](COP(=O)(O)OP(=O)(O)O[C@H]3O[C@H](CO)[C@@H](O)[C@H](O)[C@H]3O)O2)c(=O)[nH]c1=O; details: other: substrate of NPPase from rice leaves; pH 7.0; 37.0 °C
[4] = substrate: Nc1ncnc2c1ncn2[C@@H]1O[C@H](COP(=O)(O)OP(=O)(O)OP(=O)(O)O)[C@@H](O)[C@H]1O; details: pH 7.0
[5] = substrate: O=[N+]([O-])c1ccc(OP(=O)(O)Oc2ccc([N+](=O)[O-])cc2)cc1; details: pH 7.0
[6] = substrate: Nc1ncnc2c1ncn2[C@@H]1O[C@H](COP(=O)(O)OP(=O)(O)O)[C@@H](O)[C@H]1O; details: pH 7.0
[7] = substrate: Nc1nc2c(ncn2[C@@H]2O[C@H](COP(=O)(O)OP(=O)(O)O[C@H]3O[C@H](CO)[C@@H](O)[C@H](O)[C@@H]3O)[C@@H](O)[C@H]2O)c(=O)[nH]1; details: pH 7.0
[8] = substrate: Nc1ccn([C@@H]2O[C@H](COP(=O)(O)OP(=O)(O)O[C@H]3O[C@H](CO)[C@@H](O)[C@H](O)[C@H]3O)[C@@H](O)[C@H]2O)c(=O)n1; details: pH 7.0
[9] = substrate: Nc1ncnc2c1ncn2[C@@H]1O[C@H](COP(=O)(O)OP(=O)(O)O[C@H]2O[C@H](CO)[C@@H](O)[C@H](O)[C@H]2O)[C@@H](O)[C@H]1O; details: pH 7.0
[10] = substrate: Nc1ncnc2c1ncn2[C@@H]1O[C@H](COP(=O)(O)OP(=O)(O)O[C@H]2O[C@H](CO)[C@@H](O)[C@H](O)[C@@H]2O)[C@@H](O)[C@H]1O; details: other: substrate of NPPase from barley leaves; pH 7.0
[11] = substrate: O=[N+]([O-])c1ccc(OP(=O)(O)O)cc1; details: other: substrate of NPPase from barley leaves; pH 7.0
[12] = substrate: NC(=O)c1ccc[n+]([C@@H]2O[C@H](COP(=O)(O)OP(=O)(O)OC[C@H]3O[C@@H](n4cnc5c(N)ncnc54)[C@H](O)[C@@H]3O)[C@@H](O)[C@H]2O)c1; details: other: substrate of NPPase from barley leaves; pH 7.0
[13] = other: substrate of NPPase from rice leaves, 37.0 °C
[14] = other: substrate of NPPase from barley leaves

B1: NPPase from rice leaves (Oryza sativa Japonica Group) (protein)
chain: SRPSSSLEGFQPLSKIAVHKATVDLHGSAFVSATPALLGDQGEDTEWVTVKYGWANPSADDWIAVFSPADFISGSCPNPSRYPDEPLLCTAPIKYQFANYSANYVYWGKGSIRFQLINQRYDFSFALFTGGLENPKLVAVSEAISFKNPKAPVYPRLAQGKSYDEMTVTWTSGYDISEAYPFVEWGMVVAGAAAPTRTAAGTLTFNRGSMCGEPARTVGWRDPGFIHTAFLRDLWPNKEYYYKIGHELSDGSIVWGKQYTFRAPPFPGQNSLQRIIVFGDMGKAERDGSNEFANYQPGSLNTTDRLVEDLDNYDIVFHIGDLPYANGYISQWDQFTAQVAPITAKKPYMIASGNHERDWPNTGGFFDVKDSGGECGVPAETMYYYPAENRANFWYKVDYGMFRFCIADSEHDWREGTDQYKFIEQCLSTVDRKHQPWLIFAAHRVLGYSSNWWYADQGSFEEPEGRESLQRLWQRHRVDVAFFGHVHNYERTCPMYQSQCVSGERRRYSGTMNGTIFVVAGGGGSHLSDYTSAIPKWSVFRDRDFGFVKLTAFNHSSLLFEYKKSSDGKVYDSFTVERDYRDVLSCVHDSCLPTTLAS
B1 gave a Km [1] of 930 µM, a Vmax [1] of 119 µmol/min/mg and a kcat/Km [1] of 148000 M⁻¹ s⁻¹. The Km [2] was 3040 µM, the Km [3] was 600 µM and the Vmax [3] was 106 µmol/min/mg. It also gave a kcat/Km [3] of 206000 M⁻¹ s⁻¹, a Km [4, 13] of 2060 µM and a Vmax [4, 13] of 356 µmol/min/mg. The kcat/Km [4, 13] was 203000 M⁻¹ s⁻¹, the Km [5, 13] was 1300 µM and the Vmax [5, 13] was 191 µmol/min/mg. It also gave a kcat/Km [5, 13] of 171000 M⁻¹ s⁻¹, a Km [6, 13] of 4330 µM and a Vmax [6, 13] of 385 µmol/min/mg. The kcat/Km [6, 13] was 100000 M⁻¹ s⁻¹, the Km [7, 13] was 800 µM and the Vmax [7, 13] was 129 µmol/min/mg. For the same protein, the kcat/Km [7, 13] was 190000 M⁻¹ s⁻¹, the Km [8, 13] was 920 µM and the Vmax [8, 13] was 107 µmol/min/mg. The Km [9, 13] was 600 µM, the Vmax [9, 13] was 183 µmol/min/mg and the kcat/Km [9, 13] was 350000 M⁻¹ s⁻¹.

B2: NPPase from barley leaves (Hordeum vulgare) (protein)
chain: SDGSVVWAKPYTFRAPPTPGQNSLQRIIVFGDMGKAERDGSNEFANYQPGSLNTTDRLIEDLDNYDIVFHIGDMPYANGYLSQWDQFTAQVAPISAKKPYMVASGNHERDWPNTGGFFDVKDSGGECGVPAETMYYYPAENRANFWYKVDYGMFRFCVGDSEHDWREGTPQYKFIEECLSTVDRKHQPWLIFTAHRVLGYSSNSWYADQGSFEEPEGRESLQKLWQRYRVDIAYFGHVHNYERTCPLYQSQCVNADKTHYSGTMNGTIFVVAGGGGSHLSSYTTAIPKWSIFRDHDYGFTKLTAFNHSSLLFEYMKSSDGKVYDSFTIHRDYRDVLSCVHDSCFPTTLAS
For B2, the Km [4, 14] was 3500 µM, the Km [10] was 400 µM and the Km [11] was 500 µM. For the same protein, the Km [12] was 2500 µM, the Km [5, 14] was 300 µM and the Km [6, 14] was 3500 µM. For the same protein, the Km [7, 14] was 400 µM, the Km [8, 14] was 2800 µM and the Km [9, 14] was 500 µM.
